Assay results taken from article PMC535902.

Legend:
[1] = biological target: Rhodobacter capsulatus porphobilinogen synthase (Rhodobacter capsulatus) (UniProt P42504); assay: AUC; sedimentation equilibrium, 4 °C, 10 mM Tris-HCl pH 7.7 with 0.1 mM DTT or 1 mM βME, 12.3 uM in monomer (440 ug/ml), 8,000-14,000 rpm, global fit to a single species model
[2] = biological target: Rhodobacter capsulatus porphobilinogen synthase (Rhodobacter capsulatus) (UniProt P42504); assay: SEC; Superose 6 (10 x 300 mm), 0.5 ml/min, 100 mM BTP pH 8.6, 100 uL of a 200 ug/ml solution; column calibrated with standards
[3] = biological target: Rhodobacter capsulatus porphobilinogen synthase (Rhodobacter capsulatus) (UniProt P42504)

- stoichiometry N [1]: 6
- stoichiometry N [2]: 6
- specific activity of the enzyme against protein concentration (0.01 to 40 ug/ml; from ~150 at the lowest to ~450 umol h^-1 mg^-1 at the highest) (μmol h^-1 mg^-1) [3]: 450
Substance: Rhodobacter capsulatus porphobilinogen synthase (from UniProt P42504 1-332) (enzyme)
